B1: OR4K15 (parent)
chain: GUUAACGGUCAUAGGCCAUGGAAACUAGGAGCACCAUUUCGCUGCCAGUGAAGAAAUGAACAAAGAAAAUCUGGGCCAGGCAGGCAUCAAAAGAAAUAGUCUUGCGCUCAACCAGAAAGUCUGUAAUCAUUUUAAGGGUA

In this data set the parent is B1. Put plainly: self-cleavage, relative activity (ratio to wild type); higher = more cleavage; in vitro, sequencing; the parent is a self-cleaving ribozyme.
In the case of A5U G138A, the self-cleavage was determined as 1.71.

Turning to A5C A47G, the self-cleavage worked out at 1.1.

Consider U3C U100C, for which the self-cleavage amounted to 1.71.

On to A5U U72A, for which the self-cleavage came out at 0.62.

As for U3C U49C, the self-cleavage was 0.5.

A4G G138A: the self-cleavage was 0.99.

Consider A5U A96G, for which the self-cleavage amounted to 1.12.

Take A5U A86G: the self-cleavage stood at 0.92.

Turning to A5C A68G, the self-cleavage was 1.63.

As for A5U U12A, the self-cleavage was 0.69.

Consider A4U A56G, for which the self-cleavage worked out at 0.98.

Regarding U3C A55G, the self-cleavage amounted to 1.1.

A5G U43A: the self-cleavage worked out at 1.49.

With A5G U43C, the self-cleavage is 0.59.

For the variant U3A U122C, the self-cleavage came out at 1.35.

With A5G A126G, the self-cleavage worked out at 0.69.

As for A5G G65A, the self-cleavage was 0.9.

Take U3C A36G: the self-cleavage was 1.39.

U3C A36U: the self-cleavage was 1.33.

In the case of U3C U127C, the self-cleavage was found to be 1.79.

For the variant A5G U87C, the self-cleavage was found to be 0.88.

Consider U3C A51G, for which the self-cleavage was found to be 1.12.

For U3A U57C, the self-cleavage is 1.14.

A5G U132A: the self-cleavage stood at 0.6.

For A5G U132C, the self-cleavage amounted to 0.89.

With U3C U72C, the self-cleavage turned out to be 0.25.

For A5U G21A, the self-cleavage was found to be 1.25.

A4U G106A: the self-cleavage came to 0.14.

On to C6U A47U, for which the self-cleavage turned out to be 0.51.

As for A4C U100C, the self-cleavage came to 1.19.

On to A5G A24G, for which the self-cleavage is 1.14.

For A5G A24U, the self-cleavage came out at 0.83.

With A4G U12C, the self-cleavage is 0.58.

On to A4G U103C, for which the self-cleavage came to 1.19.

As for A4G U103A, the self-cleavage is 1.27.

Turning to U3G U9A, the self-cleavage was determined as 0.99.

For A5G U124A, the self-cleavage worked out at 0.54.

For the variant A5G U124C, the self-cleavage is 0.58.

Take A4G G15C: the self-cleavage turned out to be 1.28.

In the case of A5C U132C, the self-cleavage came to 1.97.

As for A5G U103C, the self-cleavage was determined as 0.27.

With A5G A111G, the self-cleavage was determined as 0.08.

Regarding A5C A95G, the self-cleavage amounted to 0.99.

As for U3C U26A, the self-cleavage is 1.76.

Take A5U G15A: the self-cleavage was determined as 1.04.

As for A5U A126U, the self-cleavage was 0.

Turning to A5C C17U, the self-cleavage amounted to 0.39.

In the case of A5U A95U, the self-cleavage stood at 1.76.

Consider A5G A11U, for which the self-cleavage came out at 0.86.

On to U3C A116G, for which the self-cleavage is 0.68.

In the case of A5U A140G, the self-cleavage was determined as 1.09.

Turning to U3C A110G, the self-cleavage was 0.19.

For U3C A110U, the self-cleavage was 1.16.

In the case of U3C G28U, the self-cleavage turned out to be 2.64.

For A5U A69G, the self-cleavage was found to be 0.36.

Turning to A4G A110G, the self-cleavage was 0.4.

On to A5G C107U, for which the self-cleavage was 0.02.

For the variant A5G A62G, the self-cleavage is 0.59.

As to U3C U38C, the self-cleavage was determined as 0.98.

For U3C A59G, the self-cleavage was 1.17.

Turning to A5C U102A, the self-cleavage came to 1.35.

With U3C A23G, the self-cleavage is 1.22.

Regarding A5U A89G, the self-cleavage was 1.15.

In the case of C6A A64G, the self-cleavage stood at 1.24.

For the variant A4G U43A, the self-cleavage was found to be 1.26.

For the variant A4G U43G, the self-cleavage was 0.55.

For U3C U19C, the self-cleavage was determined as 1.88.

As to A4G A90G, the self-cleavage is 1.11.

For the variant A4G G106A, the self-cleavage amounted to 0.02.

Consider U3C U102A, for which the self-cleavage amounted to 0.38.

For A4U U127C, the self-cleavage stood at 1.34.

As for U3C A54C, the self-cleavage was 0.51.

On to A5U U100G, for which the self-cleavage is 1.03.

For A5C A111G, the self-cleavage turned out to be 0.16.

For the variant U3C A67G, the self-cleavage is 0.97.

For the variant A5G A110G, the self-cleavage is 0.15.

In the case of U3A U130C, the self-cleavage came out at 1.09.

As to A5G A96G, the self-cleavage worked out at 1.21.

In the case of A4C A62G, the self-cleavage amounted to 0.88.

With A4C A62U, the self-cleavage was 0.93.

For the variant U3C A114G, the self-cleavage worked out at 0.47.

On to A5C A23G, for which the self-cleavage amounted to 1.28.

For A5U A60C, the self-cleavage amounted to 1.78.

For A5U A60G, the self-cleavage stood at 0.99.

With C6A U127C, the self-cleavage worked out at 0.49.

As to A5G A135G, the self-cleavage is 2.3.

As to U3C A92G, the self-cleavage is 1.48.

As for A5G A52C, the self-cleavage was 1.39.

Regarding A5G A52G, the self-cleavage was 1.07.

For the variant U3C A30G, the self-cleavage is 0.92.

In the case of U3C U43A, the self-cleavage worked out at 1.31.

As for A5U A18G, the self-cleavage is 1.83.

A4G U39C: the self-cleavage was 1.46.

For the variant A4G U39G, the self-cleavage was determined as 1.88.

With U3C A64G, the self-cleavage stood at 0.7.

On to A5G G21A, for which the self-cleavage turned out to be 1.23.

On to A4G A134G, for which the self-cleavage is 0.91.

A4G A18U: the self-cleavage was determined as 1.25.

Take U3C G74U: the self-cleavage worked out at 0.15.

Regarding A4G U72C, the self-cleavage turned out to be 0.21.

With A4G U72A, the self-cleavage came out at 0.22.

Turning to A5G G48A, the self-cleavage was determined as 0.77.

Regarding C6A U122C, the self-cleavage turned out to be 0.29.

As to A5G U127A, the self-cleavage came out at 2.43.

Consider A5G U127C, for which the self-cleavage amounted to 0.8.

Consider A5U A11G, for which the self-cleavage was determined as 1.49.

Regarding A5C A56G, the self-cleavage stood at 1.05.

As to U3G A5C, the self-cleavage amounted to 1.53.

In the case of A5G U139A, the self-cleavage was determined as 1.6.

Regarding A5G U139C, the self-cleavage was 1.1.

Consider A4G G41A, for which the self-cleavage turned out to be 1.43.

Consider A4G U124C, for which the self-cleavage worked out at 0.5.

A4G U124A: the self-cleavage worked out at 0.48.

Take A5G A92U: the self-cleavage came out at 0.95.

U3C A62U: the self-cleavage came to 1.22.

Turning to U3C A62G, the self-cleavage is 0.96.

On to A5G G137A, for which the self-cleavage is 0.6.

Turning to A5G G7U, the self-cleavage was found to be 1.05.

Regarding A5G G7A, the self-cleavage is 0.91.

Regarding A5U A55U, the self-cleavage was 1.15.

With A5G A30U, the self-cleavage came to 1.14.

In the case of A5G U26C, the self-cleavage was 0.6.

Regarding A4U U108C, the self-cleavage is 0.09.

As for A5U A91G, the self-cleavage amounted to 0.86.

On to A5U A91U, for which the self-cleavage was found to be 1.64.

Regarding U3C A111G, the self-cleavage stood at 0.03.

For A5C A36U, the self-cleavage is 1.59.

Take A4G A52U: the self-cleavage is 0.92.

In the case of U3C U132A, the self-cleavage was found to be 1.58.

On to A4G U122A, for which the self-cleavage was found to be 1.37.

On to A5G A125G, for which the self-cleavage worked out at 0.42.

As for A5G U131C, the self-cleavage was 0.56.

Take C6G U100C: the self-cleavage amounted to 0.97.

Consider A4G A64G, for which the self-cleavage was 1.21.

As to A5C C105U, the self-cleavage turned out to be 0.08.

Regarding C6A A66G, the self-cleavage is 1.23.

For the variant C6U A11U, the self-cleavage came out at 1.34.

On to A4U A140G, for which the self-cleavage stood at 1.16.

Turning to C6U A27G, the self-cleavage worked out at 2.16.

Turning to A5G C113U, the self-cleavage stood at 0.16.

In the case of A4G A92U, the self-cleavage amounted to 1.44.

On to A4G A92G, for which the self-cleavage came to 1.18.

Take U3C A68G: the self-cleavage was 0.86.

U3C A68C: the self-cleavage amounted to 1.6.

Regarding A4G A118G, the self-cleavage was found to be 1.01.

Consider A5G G29C, for which the self-cleavage came out at 0.82.

Regarding A5U A68G, the self-cleavage came to 0.82.

Consider U3C U103C, for which the self-cleavage stood at 1.12.

Turning to U3G A24G, the self-cleavage amounted to 0.8.

On to A5C A18G, for which the self-cleavage came to 1.02.

Turning to U3G G41U, the self-cleavage turned out to be 1.

A4G A78U: the self-cleavage was 0.63.

Consider U3C G119U, for which the self-cleavage was found to be 0.99.

Take U3C G119A: the self-cleavage was 1.44.

As for U3C C71A, the self-cleavage was 0.16.

As for U3C C71U, the self-cleavage is 0.12.

Consider U3A U127C, for which the self-cleavage turned out to be 0.63.

In the case of A4G A96C, the self-cleavage came to 0.67.

Take A4G A96G: the self-cleavage was determined as 1.4.

For the variant A5G A116U, the self-cleavage came to 0.25.

For A5U U122A, the self-cleavage turned out to be 1.48.

In the case of A4G A36U, the self-cleavage came to 0.79.

Regarding A4G A55G, the self-cleavage turned out to be 1.13.

As for A5G U72A, the self-cleavage came out at 0.43.

Take A5G U72C: the self-cleavage was determined as 0.41.

As for U3G A51G, the self-cleavage is 1.72.

For the variant A5G A63G, the self-cleavage turned out to be 1.21.

Source of the values: the RNAGym collection of RNA variant scans (doi:10.7554/elife.90254).
